Assays:
[1] = target: T1, human ROR1 expressed on the surface of cancer cells (human, UniProt Q01973 30-937); assay: cell-based or functional assay
[2] = target: T2, His-tagged soluble human ROR1 (shROR1-His) (human, UniProt Q01973 30-406); assay: SPR (Biacore), diabody captured via anti-E/K-coil, shROR1-His as analyte
T2 construct: also called ROR1 protein; immobilized ROR1; not shown: His-Tag
Procedure: The binding kinetics of DART-1 to DART-6, DART-10 to DART-17, DART-20 to DART-33 was investigated using Biacore analysis in which ROR1 protein was passed over immobilized diabodies. Briefly, each diabody construct was captured on immobilized anti-E/K-coil surface and was incubated with shROR1-His at 25 and 100 nM, and the kinetics of binding were determined via Biacore analysis.

[3] = target: T2, His-tagged soluble human ROR1 …; assay: sandwich ELISA: plate coated with shROR1-His, serial dilutions of diabody, bound diabody detected with biotinylated CD3 and streptavidin-HRP; abs @450nm
Procedure: (§1) The ability of the bispecific ROR1×CD3 two and three chain diabodies DART-1 and DART-A to bind both ROR1 and CD3 was examined by a sandwich ELISA. Briefly, microtiter plates were coated with shROR1-His, the plates were washed and incubated with three-fold serial dilutions of DART-1 or DART-A. The amount of diabody binding to the immobilized ROR1 was assessed using a biotinylated CD3 detected with Streptavidin-HRP. All samples were analyzed on a plate reader and binding curves generated. […] The cells were washed twice incubated with biotin-conjugated mouse anti-EK-coil antibody that recognizes the E-coil/K-coil (EK) heterodimerization region (100 μL of 1 μg/mL mixed with 1:500 diluted streptavidin-phycoerythrin) for 45 min. The cells were then washed and resuspended with FACS buffer, and analyzed with a BD FCS Canto II flow cytometer using FlowJo v10 software.

[4] = target: T2, His-tagged soluble human ROR1 …; assay: SPR (Biacore)
[5] = target: T2, His-tagged soluble human ROR1 …; assay: sandwich ELISA: plate coated with shROR1-His, serial dilutions of diabody, bound diabody detected with biotinylated CD3 and streptavidin-HRP; y axis 'Mean Value'
Procedure: as §1

[6] = target: T1, human ROR1 expressed on the surface of …; assay: cell-based or functional assay; remark: listed apart in the source
[7] = target: T2, His-tagged soluble human ROR1 …; assay: SPR (Biacore), shROR1-His captured on anti-PentaHis surface, diabody 6.25-100 nM as analyte
Procedure: The binding affinity of DART-1, DART-A, DART-B, and DART-C was investigated using Biacore analysis in which each diabody construct was passed over immobilized ROR1. Briefly, shROR1-His was captured on immobilized anti-PentaHis surface and was incubated with DART-1, DART-A, DART-B or DART-C at 6.25-100 nM, and the kinetics of binding was determined via Biacore analysis.

T1 sequence (Q01973 30-937): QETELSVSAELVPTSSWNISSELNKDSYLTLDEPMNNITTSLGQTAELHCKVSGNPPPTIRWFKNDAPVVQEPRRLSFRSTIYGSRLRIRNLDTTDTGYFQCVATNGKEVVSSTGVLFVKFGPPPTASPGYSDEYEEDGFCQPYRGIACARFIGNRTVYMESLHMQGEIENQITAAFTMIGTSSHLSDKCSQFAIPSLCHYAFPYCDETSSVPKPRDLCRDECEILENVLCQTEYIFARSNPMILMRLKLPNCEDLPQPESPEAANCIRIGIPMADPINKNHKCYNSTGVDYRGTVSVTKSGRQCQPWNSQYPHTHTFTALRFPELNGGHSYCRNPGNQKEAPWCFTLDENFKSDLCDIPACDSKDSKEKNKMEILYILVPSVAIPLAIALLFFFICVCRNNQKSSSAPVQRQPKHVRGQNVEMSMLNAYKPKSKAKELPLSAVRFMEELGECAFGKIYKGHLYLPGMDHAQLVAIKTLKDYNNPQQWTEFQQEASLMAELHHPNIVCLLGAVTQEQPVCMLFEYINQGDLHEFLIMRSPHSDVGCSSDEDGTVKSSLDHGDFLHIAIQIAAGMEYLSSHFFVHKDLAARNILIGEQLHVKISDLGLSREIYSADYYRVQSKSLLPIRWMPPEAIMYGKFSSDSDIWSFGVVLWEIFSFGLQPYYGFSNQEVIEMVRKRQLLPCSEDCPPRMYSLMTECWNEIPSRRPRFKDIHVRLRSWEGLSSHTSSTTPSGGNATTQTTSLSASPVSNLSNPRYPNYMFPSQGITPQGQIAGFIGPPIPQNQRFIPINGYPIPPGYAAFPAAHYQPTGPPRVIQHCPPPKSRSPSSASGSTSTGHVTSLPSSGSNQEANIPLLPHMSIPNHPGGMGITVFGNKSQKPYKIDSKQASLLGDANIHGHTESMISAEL
T2 sequence (Q01973 30-406): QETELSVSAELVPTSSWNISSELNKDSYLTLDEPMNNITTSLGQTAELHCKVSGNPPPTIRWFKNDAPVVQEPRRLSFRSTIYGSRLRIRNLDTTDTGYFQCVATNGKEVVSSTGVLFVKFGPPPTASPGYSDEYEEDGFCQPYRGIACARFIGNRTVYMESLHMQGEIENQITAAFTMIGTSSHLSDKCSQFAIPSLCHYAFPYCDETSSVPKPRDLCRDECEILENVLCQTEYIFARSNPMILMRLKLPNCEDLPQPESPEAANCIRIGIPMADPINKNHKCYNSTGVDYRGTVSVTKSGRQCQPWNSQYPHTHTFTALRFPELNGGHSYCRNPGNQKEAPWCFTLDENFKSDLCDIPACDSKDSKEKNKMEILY

Binder	Kd [2]	EC50 (read off the curve) [3]	EC50 (read off the curve) [5]	Kd [7]	also measured
DART-1 (bispecific antibody, VL: parental; VH: parental; also called ROR1×CD3 bispecific two chain diabody with parental anti-ROR1-VL and anti-ROR1-VH) chain 1: QLVLTQSPSASASLGSSVKLTCTLSSGHKTDTIDWYQQQPGKAPRYLMKLEGSGSYNKGSGVPDRFGSGSSSGADRYLTISSLQSEDEADYYCGTDYPGNYLFGGGTQLTVLGGGGSGGGGEVQLVESGGGLVQPGGSLRLSCAASGFTFSTYAMNWVRQAPGKGLEWVGRIRSKYNNYATYYADSVKGRFTISRDDSKNSLYLQMNSLKTEDTAVYYCVRHGNFGNSYVSWFAYWGQGTLVTVSSGGCGGGKVAALKEKVAALKEKVAALKEKVAALKE chain 2: QAVVTQEPSLTVSPGGTVTLTCRSSTGAVTTSNYANWVQQKPGQAPRGLIGGTNKRAPWTPARFSGSLLGGKAALTITGAQAEDEADYYCALWYSNLWVFGGGTKLTVLGGGGSGGGGQEQLVESGGGLVQPGGSLRLSCAASGFTFSDYYMSWVRQAPGKGLEWVATIYPSSGKTYYADSVKGRFTISSDNAKNSLYLQMNSLRAEDTAVYYCARDSYADDAALFDIWGQGTTVTVSSGGCGGGEVAALEKEVAALEKEVAALEKEVAALEK	4 nM	~2 nM	–	–	MR(%) (maximum response), redirected cell killing of HBL-2 cells (LDH release) [1]: 28.5%; MR(%) (maximum response), redirected cell killing of JIMT-1 cells (LDH release) [1]: 42.4%; MR(%) (maximum response), redirected cell killing of Jeko-1 cells (LDH release) [1]: 37.4%
DART-32 (bispecific antibody, ROR1×CD3 two chain diabody) chain 1: QLVLTQSPSASASLGSSVKLTCTLSSGHKTDTIDWYQQQPGKAPRYLMKLEGSGSYNKGSGVPDRFSGSSSGADWYLTISSLQSEDEADYYCGTDYPGNYLFGGGTQLTVLGGGGSGGGGEVQLVESGGGLVQPGGSLRLSCAASGFTFSTYAMNWVRQAPGKGLEWVGRIRSKYNNYATYYADSVKGRFTISRDDSKNSLYLQMNSLKTEDTAVYYCVRHGNFGNSYVSWFAYWGQGTLVTVSSGGCGGGKVAALKEKVAALKEKVAALKEKVAALKE chain 2: QAVVTQEPSLTVSPGGTVTLTCRSSTGAVTTSNYANWVQQKPGQAPRGLIGGTNKRAPWTPARFSGSLLGGKAALTITGAQAEDEADYYCALWYSNLWVFGGGTKLTVLGGGGSGGGGQEQLVESGGGLVQPGGSLRLSCAASGFTFSDYYMSWVRQAPGKGLEWVATIYPSSGKTYYADSVKGRLTISSDNAKDSLYLQMNSLRAEDTAVYYCTRDSYADDAALFDIWGQGTTVTVSSGGCGGGEVAALEKEVAALEKEVAALEKEVAALEK	1.1 nM	–	–	–	fold enhancement of binding relative to DART-1 [4]: > 2 fold
DART-A (bispecific antibody, IgG1, Three chain Fc Region-containing diabody (knob/hole IgG1 CH2-CH3 with L234A/L235A); C-terminal lysine of the Fc chains may be removed post-translationally; also called ROR1×CD3 bispecific three chain diabody with parental anti-ROR1-VL and anti-ROR1-VH) chain 1: QLVLTQSPSASASLGSSVKLTCTLSSGHKTDTIDWYQQQPGKAPRYLMKLEGSGSYNKGSGVPDRFGSGSSSGADRYLTISSLQSEDEADYYCGTDYPGNYLFGGGTQLTVLGGGGSGGGGEVQLVESGGGLVQPGGSLRLSCAASGFTFSTYAMNWVRQAPGKGLEWVGRIRSKYNNYATYYADSVKGRFTISRDDSKNSLYLQMNSLKTEDTAVYYCVRHGNFGNSYVSWFAYWGQGTLVTVSSASTKGEVAACEKEVAALEKEVAALEKEVAALEKGGGDKTHTCPPCPAPEAAGGPSVFLFPPKPKDTLMISRTPEVTCVVVDVSHEDPEVKFNWYVDGVEVHNAKTKPREEQYNSTYRVVSVLTVLHQDWLNGKEYKCKVSNKALPAPIEKTISKAKGQPREPQVYTLPPSREEMTKNQVSLWCLVKGFYPSDIAVEWESNGQPENNYKTTPPVLDSDGSFFLYSKLTVDKSRWQQGNVFSCSVMHEALHNHYTQKSLSLSPGK chain 2: QAVVTQEPSLTVSPGGTVTLTCRSSTGAVTTSNYANWVQQKPGQAPRGLIGGTNKRAPWTPARFSGSLLGGKAALTITGAQAEDEADYYCALWYSNLWVFGGGTKLTVLGGGGSGGGGQEQLVESGGGLVQPGGSLRLSCAASGFTFSDYYMSWVRQAPGKGLEWVATIYPSSGKTYYADSVKGRFTISSDNAKNSLYLQMNSLRAEDTAVYYCARDSYADDAALFDIWGQGTTVTVSSASTKGKVAACKEKVAALKEKVAALKEKVAALKE chain 3: not shown	–	~2 nM	~1 nM	0.69 nM	EC50 nM, redirected cell killing of Calu-3 cells by pan T-cells (LDH release) [6]: 0.196 nM; EC50 nM, redirected cell killing of JIMT-1 cells by pan T-cells (LDH release) [6]: 0.161 nM; EC50 nM, redirected cell killing of NCI-H1975 cells by pan T-cells (LDH release) [6]: 0.266 nM
DART-C (bispecific antibody, Three chain Fc Region-containing ROR1×CD3 diabody) chain 1: QLVLTQSPSASASLGSSVKLTCTLSSGHKTDTIDWYQQQPGKAPRYLMKLEGSGSYNKGSGVPDRFSGSSSGADWYLTISSLQSEDEADYYCGTDYPGNYLFGGGTQLTVLGGGGSGGGGEVQLVESGGGLVQPGGSLRLSCAASGFTFSTYAMNWVRQAPGKGLEWVGRIRSKYNNYATYYADSVKGRFTISRDDSKNSLYLQMNSLKTEDTAVYYCVRHGNFGNSYVSWFAYWGQGTLVTVSSASTKGEVAACEKEVAALEKEVAALEKEVAALEKGGGDKTHTCPPCPAPEAAGGPSVFLFPPKPKDTLMISRTPEVTCVVVDVSHEDPEVKFNWYVDGVEVHNAKTKPREEQYNSTYRVVSVLTVLHQDWLNGKEYKCKVSNKALPAPIEKTISKAKGQPREPQVYTLPPSREEMTKNQVSLWCLVKGFYPSDIAVEWESNGQPENNYKTTPPVLDSDGSFFLYSKLTVDKSRWQQGNVFSCSVMHEALHNHYTQKSLSLSPGK chain 2: QAVVTQEPSLTVSPGGTVTLTCRSSTGAVTTSNYANWVQQKPGQAPRGLIGGTNKRAPWTPARFSGSLLGGKAALTITGAQAEDEADYYCALWYSNLWVFGGGTKLTVLGGGGSGGGGQEQLVESGGGLVQPGGSLRLSCAASGFTFSDYYMSWVRQAPGKGLEWVATIYPSSGKTYYADSVKGRLTISSDNAKDSLYLQMNSLRAEDTAVYYCTRDSYADDAALFDIWGQGTTVTVSSASTKGKVAACKEKVAALKEKVAALKEKVAALKE chain 3: not shown	–	–	~0.8 nM	0.25 nM	fold enhancement of binding relative to DART-A [4]: > 2 fold
DART-D (bispecific antibody, Three chain Fc Region-containing ROR1×CD3 diabody) chain 1: QLVLTQSPSASASLGSSVKLTCTLSSGHKTDTIDWYQQQPGKAPRYLMKLEGSGSYNKGSGVPDRFSGSSSGADWYLTISSLQSEDEADYYCGTDYPGNYLFGGGTQLTVLGGGGSGGGGEVQLVESGGGLVQPGGSLRLSCAASGFTFSTYAMNWVRQAPGKGLEWVGRIRSKYNNYATYYADSVKGRFTISRDDSKNSLYLQMNSLKTEDTAVYYCVRHGNFGNSYVSWFAYWGQGTLVTVSSASTKGEVAACEKEVAALEKEVAALEKEVAALEKGGGDKTHTCPPCPAPEAAGGPSVFLFPPKPKDTLMISRTPEVTCVVVDVSHEDPEVKFNWYVDGVEVHNAKTKPREEQYNSTYRVVSVLTVLHQDWLNGKEYKCKVSNKALPAPIEKTISKAKGQPREPQVYTLPPSREEMTKNQVSLWCLVKGFYPSDIAVEWESNGQPENNYKTTPPVLDSDGSFFLYSKLTVDKSRWQQGNVFSCSVMHEALHNHYTQKSLSLSPGK chain 2: QAVVTQEPSLTVSPGGTVTLTCRSSTGAVTTSNYANWVQQKPGQAPRGLIGGTNKRAPWTPARFSGSLLGGKAALTITGAQAEDEADYYCALWYSNLWVFGGGTKLTVLGGGGSGGGGQEQLVESGGGLVQPGGSLRLSCAASGFTFSDYYMSWIRQAPGKGLEWVATIYPSSGKTYYADSAKGRLTISSDNAKDSLYLQMNSLRAEDTAVYYCTRDSYADDAALFDIWGQGTTVTVSSASTKGKVAACKEKVAALKEKVAALKEKVAALKE chain 3: not shown	–	–	~1 nM	–	–
DART-B (bispecific antibody, Three chain Fc Region-containing ROR1×CD3 diabody; VH: parental) chain 1: QLVLTQSPSASASLGSSVKLTCTLSSGHKTDTIDWYQQQPGKAPRYLMKLEGSGSYNKGSGVPDRFSGSSSGADRYLTISSLQSEDEADYYCGTDYPGNYLFGGGTQLTVLGGGGSGGGGEVQLVESGGGLVQPGGSLRLSCAASGFTFSTYAMNWVRQAPGKGLEWVGRIRSKYNNYATYYADSVKGRFTISRDDSKNSLYLQMNSLKTEDTAVYYCVRHGNFGNSYVSWFAYWGQGTLVTVSSASTKGEVAACEKEVAALEKEVAALEKEVAALEKGGGDKTHTCPPCPAPEAAGGPSVFLFPPKPKDTLMISRTPEVTCVVVDVSHEDPEVKFNWYVDGVEVHNAKTKPREEQYNSTYRVVSVLTVLHQDWLNGKEYKCKVSNKALPAPIEKTISKAKGQPREPQVYTLPPSREEMTKNQVSLWCLVKGFYPSDIAVEWESNGQPENNYKTTPPVLDSDGSFFLYSKLTVDKSRWQQGNVFSCSVMHEALHNHYTQKSLSLSPGK chain 2: QAVVTQEPSLTVSPGGTVTLTCRSSTGAVTTSNYANWVQQKPGQAPRGLIGGTNKRAPWTPARFSGSLLGGKAALTITGAQAEDEADYYCALWYSNLWVFGGGTKLTVLGGGGSGGGGQEQLVESGGGLVQPGGSLRLSCAASGFTFSDYYMSWVRQAPGKGLEWVATIYPSSGKTYYADSVKGRFTISSDNAKNSLYLQMNSLRAEDTAVYYCARDSYADDAALFDIWGQGTTVTVSSASTKGKVAACKEKVAALKEKVAALKEKVAALKE chain 3: not shown	–	–	–	0.65 nM	–

Source: patent US20170233472A1 (MacroGenics, published 2017)
